Assay results reported in article PMC2916698 (Journal of cellular physiology, 2010).

Key:
Test in all cases: two-hybrid
[1] = target: T1, Gal4-mouse RXRα ligand binding domain (LBD) (mouse, UniProt P28700 232-467)
T1 sequence (looked up): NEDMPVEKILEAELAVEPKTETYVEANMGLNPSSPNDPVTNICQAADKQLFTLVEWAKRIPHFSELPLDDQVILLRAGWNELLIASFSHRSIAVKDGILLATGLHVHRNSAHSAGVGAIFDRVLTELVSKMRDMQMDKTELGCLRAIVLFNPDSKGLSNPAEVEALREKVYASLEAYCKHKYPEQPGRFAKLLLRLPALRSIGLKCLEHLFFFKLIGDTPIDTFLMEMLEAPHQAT

[2] = target: Gal4-SRC-1 (Steroid Receptor Coactivator-1) (UniProt Q15788 1-1441)
Chain of Gal4-SRC-1 (Steroid Receptor Coactivator-1) (Q15788 whole entry, the tested form may be a part): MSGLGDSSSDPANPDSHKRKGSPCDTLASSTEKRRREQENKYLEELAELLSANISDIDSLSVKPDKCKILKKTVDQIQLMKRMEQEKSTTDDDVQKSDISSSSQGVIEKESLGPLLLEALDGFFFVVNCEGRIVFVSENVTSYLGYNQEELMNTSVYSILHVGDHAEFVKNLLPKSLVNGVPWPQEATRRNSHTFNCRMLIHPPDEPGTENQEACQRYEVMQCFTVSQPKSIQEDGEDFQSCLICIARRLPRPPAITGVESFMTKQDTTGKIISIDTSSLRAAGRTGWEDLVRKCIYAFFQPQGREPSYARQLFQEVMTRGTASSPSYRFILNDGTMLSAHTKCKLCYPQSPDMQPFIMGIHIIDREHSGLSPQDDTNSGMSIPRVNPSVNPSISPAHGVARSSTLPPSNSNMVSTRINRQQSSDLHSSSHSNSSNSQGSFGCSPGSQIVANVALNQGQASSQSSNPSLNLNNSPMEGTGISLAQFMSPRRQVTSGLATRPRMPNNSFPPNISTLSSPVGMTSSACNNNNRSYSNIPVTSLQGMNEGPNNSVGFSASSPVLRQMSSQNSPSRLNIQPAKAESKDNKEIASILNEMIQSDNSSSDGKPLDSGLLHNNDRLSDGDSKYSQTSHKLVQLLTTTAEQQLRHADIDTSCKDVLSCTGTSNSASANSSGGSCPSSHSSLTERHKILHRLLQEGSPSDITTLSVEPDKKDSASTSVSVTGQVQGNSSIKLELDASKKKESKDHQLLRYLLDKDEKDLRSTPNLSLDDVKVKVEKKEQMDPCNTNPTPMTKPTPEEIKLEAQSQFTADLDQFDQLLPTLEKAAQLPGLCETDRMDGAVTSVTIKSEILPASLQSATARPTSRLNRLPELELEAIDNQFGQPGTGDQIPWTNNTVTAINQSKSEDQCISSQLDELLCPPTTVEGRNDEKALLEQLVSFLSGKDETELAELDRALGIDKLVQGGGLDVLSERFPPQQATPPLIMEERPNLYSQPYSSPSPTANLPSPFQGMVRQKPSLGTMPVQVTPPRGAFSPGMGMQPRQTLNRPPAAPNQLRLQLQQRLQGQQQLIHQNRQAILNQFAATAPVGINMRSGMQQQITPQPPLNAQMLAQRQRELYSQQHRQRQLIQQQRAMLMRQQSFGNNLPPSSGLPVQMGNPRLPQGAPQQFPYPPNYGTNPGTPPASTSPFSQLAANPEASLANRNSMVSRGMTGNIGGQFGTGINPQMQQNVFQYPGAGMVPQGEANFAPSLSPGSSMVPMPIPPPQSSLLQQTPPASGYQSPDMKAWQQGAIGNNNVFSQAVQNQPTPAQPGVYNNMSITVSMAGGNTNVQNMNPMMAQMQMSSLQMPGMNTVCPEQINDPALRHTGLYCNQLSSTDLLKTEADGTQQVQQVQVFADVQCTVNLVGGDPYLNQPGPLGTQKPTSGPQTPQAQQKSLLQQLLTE

[3] = target: T2, Gal4-RXRα AF-1 (first 135 amino acids of human RXRα) (human, UniProt P19793 1-135)
T2 sequence (looked up): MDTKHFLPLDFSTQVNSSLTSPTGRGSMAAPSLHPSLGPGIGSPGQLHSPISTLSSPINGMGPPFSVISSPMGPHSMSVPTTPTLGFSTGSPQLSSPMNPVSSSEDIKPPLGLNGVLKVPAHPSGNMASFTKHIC

B1: VP16-rat VDR-LBD (domain or fragment, UniProt P13053 127-423, looked up)
chain: EQQHIIAILLDAHHKTYDPTYADFRDFRPPVRMDGSTGSYSPRPTLSFSGNSSSSSSDLYTTSLDMMEPSGFSNLDLNGEDSDDPSVTLDLSPLSMLPHLADLVSYSIQKVIGFAKMIPGFRDLTSDDQIVLLKSSAIEVIMLRSNQSFTMDDMSWDCGSQDYKYDVTDVSKAGHTLELIEPLIKFQVGLKKLNLHEEEHVLLMAICIVSPDRPGVQDAKLVEAIQDRLSNTLQTYIRCRHPPPGSHQLYAKMIQKLADLRSLNEEHSKQYRSLSFQPENSMKLTPLVLEVFGNEIS
[1]
  fold induction of the two-hybrid signal by 1,25(OH)2D3, RWPE1 cells: 111 fold
  fold induction of the two-hybrid signal by 1,25(OH)2D3, RWPE2 cells: 178 fold
[2]
  fold induction of the two-hybrid signal by 1,25(OH)2D3, RWPE2 cells: 10.4 fold

B2: VP16-SRC-1 (natural protein)
chain: not shown
[3]
  two-hybrid signal above the empty GAL4 vector control, RWPE1 cells: 8.2 fold

B3: VP16-mouse RXRα-LBD (domain or fragment, UniProt P28700 232-467, looked up)
chain: T1 sequence (looked up)
[2]
  fold induction of the two-hybrid signal by 1,25(OH)2D3, RWPE1 cells: 2.6 fold
